Laboratory results reported in paper PMC8163975 (The Journal of Biological Chemistry, 2021).

Legend:
[1] = target: T1, RIT1, mGppNHp-bound (human, UniProt Q92963 1-219); experiment: fluorescence polarisation; increasing concentrations of the RA/RB domain as MBP fusion protein (0.002-300 µM; or MBP alone) titrated to mGppNHp-bound RAS protein (1 µM); 30 mM Tris-HCl pH 7.4, 100 mM NaCl, 5 mM MgCl2, 3 mM DTT; Kd from a quadratic ligand-binding equation; details: both partners purified
T1 construct: human RIT1; Loaded with mGppNHp

[2] = target: T2, HRAS, mGppNHp-bound (human, UniProt P01112-1 1-189); experiment: as above; details: both partners purified
T2 construct: human HRAS; Loaded with mGppNHp, a fluorescent non-hydrolysable GTP analogue; That the RAS proteins were the pGEX (GST) constructs is surmised; also called HRAS1; p21HRAS

T1 sequence (Q92963 whole entry, the tested form may be a part): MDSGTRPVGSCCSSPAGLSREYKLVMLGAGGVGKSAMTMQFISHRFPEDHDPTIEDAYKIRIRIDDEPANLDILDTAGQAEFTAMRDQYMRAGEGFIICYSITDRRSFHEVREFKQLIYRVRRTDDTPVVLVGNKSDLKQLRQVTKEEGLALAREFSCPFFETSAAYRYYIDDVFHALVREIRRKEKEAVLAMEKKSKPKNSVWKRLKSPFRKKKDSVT

B1: RASSF9-to-5 variant of the RASSF9 RA domain, MBP fusion protein (domain or fragment, human, UniProt O75901 25-119, looked up)
chain: EEKEIVVWVCQEEKLDCIKTLHTTSADVIQALLEEHEATFGEKRFLLGKPSDYCIIEKWRGSERVLPPLTRILKLWKAWGDEQPNMQFVLVKADA
notes: RASSF9 RA domain (aa 25-119 of O75901, the limits of the wild-type construct) with five hotspot residues changed to those of RASSF5; source: gene synthesis (BioCat) in pMal-c5X-His vector; E. coli, purified
Q: B1 was tested. Which Kd [1] did it give?
A: 150 µM

Q: What about the Kd [2] of the same binder?
A: 40 µM
